Assay results: publication PMC2820081

Biological target: endogenous optineurin (rat (endogenous in RGC5)) (UniProt Q8R5M4)
Experiment: native gel or EMSA; native blue gel electrophoresis (NativePAGE Novex Bis-Tris gel) of lysates in IP buffer from RGC5 cells or RGC5 cells transfected with pTarget-FLAG-OPTN, non-reducing; Western blot with anti-C-terminal optineurin or anti-FLAG

Substance: endogenous optineurin (from UniProt Q8R5M4 1-585) (natural protein)
- stoichiometry N: 6
